Measured values: patent US20260234280A1
Values belong to the substance of their own block, whether it stands above or below them.

Key:
soluble BCMA = soluble BCMA (UniProt Q02223); assay: cell-based or functional assay
[1] = target: human BCMA (human-BCMA) (human) (UniProt Q02223); assay: cell-based or functional assay
[2] = target: human GPRC5D (human-GPRC5D) (human) (UniProt Q9NZD1); assay: flow cytometry (FACS), human GPRC5D-CHOK1 cells
[3] = target: cynomolgus monkey BCMA recombinant protein (Acro, Cat. No. BCA-C52H7) (cynomolgus monkey); assay: SPR (Biacore), antibody captured by anti-human IgG (Fc) on CM5 chip, BCMA as analyte, 1:1 model
[4] = target: human BCMA recombinant protein (Acro, Cat. No. BCA-H522y) (human) (UniProt Q02223); assay: as above
[5] = target: human BCMA (human-BCMA) (human) (UniProt Q02223); assay: flow cytometry (FACS), NCI-H929 cells
[6] = target: human CD3 recombinant protein (Acro, Cat. No. CDD-H52W1) (human) (UniProt P07766); assay: SPR (Biacore), CD3 immobilised on CM5 chip, antibody as analyte, 1:1 model
[7] = target: cynomolgus monkey CD3 recombinant protein (Acro, Cat. No. CDD-C52W4) (cynomolgus monkey) (UniProt Q95LI5); assay: as above
[8] = target: cynomolgus monkey BCMA (cyno-BCMA) (cynomolgus monkey); assay: flow cytometry (FACS), cynomolgus monkey BCMA-CHOK1 cells
[9] = target: human CD3 naturally expressed on Jurkat T lymphocytes and human PBMCs (human) (UniProt P07766); assay: flow cytometry (FACS), human PBMCs
[10] = target: cynomolgus monkey CD3 naturally expressed on cyno PBMCs (cynomolgus monkey) (UniProt Q95LI5); assay: flow cytometry (FACS), cyno PBMCs
[11] = target: human BCMA (human-BCMA) (human) (UniProt Q02223); assay: flow cytometry (FACS), human BCMA-CHOK1 cells
[12] = target: human CD3 naturally expressed on Jurkat T lymphocytes and human PBMCs (human) (UniProt P07766); assay: flow cytometry (FACS), Jurkat cells
[13] = target: human BCMA (human-BCMA) (human) (UniProt Q02223); assay: flow cytometry (FACS), RPMI8226 cells
[14] = target: human BCMA and human GPRC5D, the dual targets expressed on NCI-H929 and RPMI8226 tumor cells; assay: flow cytometry (FACS), NCI-H929 cells
[15] = target: human BCMA and human GPRC5D, the dual targets expressed on NCI-H929 and RPMI8226 tumor cells; assay: flow cytometry (FACS), RPMI8226 cells

human CD3 recombinant protein (Acro, Cat. No. CDD-H52W1) (human), sequence (P07766 23-126): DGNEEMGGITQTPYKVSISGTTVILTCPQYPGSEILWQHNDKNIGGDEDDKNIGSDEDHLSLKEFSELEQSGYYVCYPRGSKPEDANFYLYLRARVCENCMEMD
cynomolgus monkey CD3 recombinant protein (Acro, Cat. No. CDD-C52W4) (cynomolgus monkey), sequence (Q95LI5 22-117): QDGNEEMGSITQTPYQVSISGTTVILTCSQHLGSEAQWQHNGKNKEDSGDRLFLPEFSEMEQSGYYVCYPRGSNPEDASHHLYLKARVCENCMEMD
human BCMA (human-BCMA) (human), sequence (Q02223 whole entry): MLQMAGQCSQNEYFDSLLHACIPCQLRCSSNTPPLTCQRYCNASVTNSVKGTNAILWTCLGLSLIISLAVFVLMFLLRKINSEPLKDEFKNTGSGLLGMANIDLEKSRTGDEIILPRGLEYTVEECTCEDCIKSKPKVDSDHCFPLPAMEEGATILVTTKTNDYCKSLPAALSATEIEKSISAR
soluble BCMA, sequence (Q02223 1-54 limits assumed): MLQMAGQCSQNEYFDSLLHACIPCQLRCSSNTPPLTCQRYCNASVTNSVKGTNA
human BCMA recombinant protein (Acro, Cat. No. BCA-H522y) (human), sequence (Q02223 1-54 limits assumed): as above
human CD3 naturally expressed on Jurkat T lymphocytes and human PBMCs (human), sequence (P07766 23-207): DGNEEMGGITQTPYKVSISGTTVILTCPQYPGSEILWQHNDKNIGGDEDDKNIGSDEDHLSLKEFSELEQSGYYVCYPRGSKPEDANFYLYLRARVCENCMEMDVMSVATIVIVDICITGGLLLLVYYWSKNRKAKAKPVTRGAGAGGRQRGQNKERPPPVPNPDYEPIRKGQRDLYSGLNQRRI
cynomolgus monkey CD3 naturally expressed on cyno PBMCs (cynomolgus monkey), sequence (Q95LI5 22-198): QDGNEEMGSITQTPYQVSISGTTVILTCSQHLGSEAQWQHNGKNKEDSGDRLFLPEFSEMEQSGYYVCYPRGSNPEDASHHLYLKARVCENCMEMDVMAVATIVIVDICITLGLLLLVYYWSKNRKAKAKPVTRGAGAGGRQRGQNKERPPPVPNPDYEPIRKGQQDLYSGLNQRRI
cynomolgus monkey BCMA (cyno-BCMA) (cynomolgus monkey), sequence (Q02223 other isoform, or with tags, fused parts or gaps): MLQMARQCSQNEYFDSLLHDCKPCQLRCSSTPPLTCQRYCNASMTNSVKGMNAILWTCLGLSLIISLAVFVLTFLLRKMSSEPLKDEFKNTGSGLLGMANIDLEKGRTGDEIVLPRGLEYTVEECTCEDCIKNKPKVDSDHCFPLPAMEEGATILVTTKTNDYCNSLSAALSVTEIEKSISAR
human GPRC5D (human-GPRC5D) (human), sequence (Q9NZD1 whole entry): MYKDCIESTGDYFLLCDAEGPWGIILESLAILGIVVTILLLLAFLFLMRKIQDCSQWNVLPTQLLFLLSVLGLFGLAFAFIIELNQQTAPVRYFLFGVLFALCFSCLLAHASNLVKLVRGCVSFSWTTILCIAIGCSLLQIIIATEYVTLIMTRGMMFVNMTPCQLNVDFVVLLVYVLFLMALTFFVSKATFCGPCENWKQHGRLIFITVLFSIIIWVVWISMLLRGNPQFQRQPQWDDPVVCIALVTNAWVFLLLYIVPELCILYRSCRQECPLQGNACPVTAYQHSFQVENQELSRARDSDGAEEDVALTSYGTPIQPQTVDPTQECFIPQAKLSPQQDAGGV

Substance: Teclistamab analogue (BCMA/CD3), BCMAxCD3 bispecific antibody from Janssen
Ratio (EC50), TDCC on NCI-H929 with 2.5 ug/ml against 0 ug/ml BCMA (soluble BCMA): 21
TDCC Cytotoxicity (max) on NCI-H929 with 2.5 ug/ml BCMA (soluble BCMA): 53.9
TDCC EC50 (nM) on NCI-H929 with 2.5 ug/ml BCMA (soluble BCMA): 2.36 nM
fold change of TDCC EC50 on NCI-H929 in the presence of 2500 ng/ml soluble BCMA (soluble BCMA): 25 fold
TDCC Cytotoxicity (max) on NCI-H929 with 0 ug/ml BCMA [1]: 40.9
TDCC EC50 (nM) on NCI-H929 with 0 ug/ml BCMA [1]: 0.115 nM
Top MFI [2]: 160 MFI
Kd [3]: 8.49 nM
koff [3]: 0.0235 s⁻¹
kon [3]: 2.77e+06 M⁻¹ s⁻¹
Kd [4]: 0.379 nM
koff [4]: 0.00135 s⁻¹
kon [4]: 3.55e+06 M⁻¹ s⁻¹
EC50 [5]: 2.43 nM
Top MFI [5]: 669 MFI
Kd [6]: 21 nM
koff [6]: 0.00522 s⁻¹
kon [6]: 248000 M⁻¹ s⁻¹
Kd [7]: 21.1 nM
koff [7]: 0.00336 s⁻¹
kon [7]: 159000 M⁻¹ s⁻¹
EC50 [8]: 15.3 nM
Top MFI [8]: 1770 MFI
EC50 [9]: 6.06 nM
Top MFI [9]: 672 MFI
EC50 [10]: 55.8 nM
Top MFI [10]: 2060 MFI
EC50 [11]: 2.63 nM
Top MFI [11]: 2280 MFI
EC50 [12]: 3.22 nM
Top MFI [12]: 825 MFI
EC50 [13]: 1.17 nM
Top MFI [13]: 169 MFI

Kd [6]: 18 nM
koff [6]: 0.00201 s⁻¹
kon [6]: 112000 M⁻¹ s⁻¹
Kd [7]: 22.2 nM
koff [7]: 0.00379 s⁻¹
kon [7]: 170000 M⁻¹ s⁻¹
Substance: Talquetamab analogue (GPRC5D/CD3), GPRC5DxCD3 bispecific antibody from Janssen

Top MFI [14]: 104 MFI
Top MFI [15]: 112 MFI
Substance: hIgG1 LALA isotype (Biointron, Cat. No. B109802) (antibody)
